The record followed here is the supplement of paper PMC12042874.

± gives the uncertainty stated by the source.

The nature of the data set: amyloid nucleation score (Sup35N fusion, yeast selection) (log enrichment); library NNK2; higher = more nucleation; inactive = no reads after selection. The procedure, abridged: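 Sup35N fusions to peptides of 20 random codons were expressed in psi-negative yeast, induced 24 hours with 100 μM copper sulfate, and grown 7 days at 30°C on medium lacking adenine and uracil. Input and output plasmid inserts were sequenced by Illumina. The nucleation score is the DiMSum log enrichment of output over input reads, centred on the mode score of non-aggregating sequences. Sequences with under 100 input reads were excluded.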
Substance GSYKSGSSSA yielded an amyloid nucleation score of 2.57 ± 0.1.
Under GSYLA stands 0.697 ± 0.47; under GSYVTAISAHFVGKLCASRI, 0.343 ± 0.8; under GTARDGRYSSMKVSDRYFVR, “inactive”.
As to GTFSCGSGEI, the amyloid nucleation score was 0.534 ± 0.8.
Substance GTMDITYTY returned an amyloid nucleation score of 2.44 ± 0.11.
As for GTMQFIVICNSDVFVSWLPN, the amyloid nucleation score is 7.253 ± 0.071.
Turning to GTRLNYFNWIICGGETGCAA, the amyloid nucleation score is -0.171 ± 1.
Under GTSCSMGPAWGLSCYGTFVD stands -0.288 ± 0.55; under GTSDSWTNVGRHYLKGVRDG, -1.08 ± 0.55; under GTSFVKFEK, -0.186 ± 0.23.
For GTSHWWIGMRFSEADLLLDW, the amyloid nucleation score was 0.656 ± 0.41.
The result for GTSRLNVEGGLYCRGSIVDV reads -0.299 ± 0.37; that for GTTCGSSCRVVSLMKENVGA, -0.367 ± 0.48; that for GTWMWETFCRLTFVFGIRRG, -0.264 ± 0.54.
For GVDKGSVYG, the amyloid nucleation score entry is “inactive”.
Take GVENKDRVSPNYVG: the amyloid nucleation score is -0.424 ± 0.49.
On to GVFSLRKGGCRDW, for which the amyloid nucleation score is -0.567 ± 1.1.
Turning to GVGRWIQCQDSWNTNRPSQP, the amyloid nucleation score was determined as 1.52 ± 0.27.
Under GVKFQAAEAGPPGTYGTLGS stands -0.031 ± 0.63; under GVKRLVTGVCNKYRDIFFVG, -0.22 ± 1; under GVMRIHCGDREC, 0.8 ± 0.54.
Under GVNRAWL stands 3.35 ± 0.06; under GVPIGKKYRTSVCENMEGSW, -0.627 ± 0.31; under GVQYRSGESGDSASYWRLGG, 0.628 ± 0.38.
In turn, GVRDVIQL registered an amyloid nucleation score of 2.05 ± 0.26.
In turn, GVREYMH displayed an amyloid nucleation score of 0.544 ± 0.28.
For the substance GVRWYAMRPEVGYL, the amyloid nucleation score stood at 0.155 ± 1.1.
Take GVRYSFSTTRKFTELSFNIC: the amyloid nucleation score was found to be 3 ± 0.16.
GVSSNGSLCWCVFMKVPAVC: the amyloid nucleation score was found to be 2.98 ± 0.078.
Turning to GVSVV, the amyloid nucleation score result is “inactive”.
For the substance GVVNLTD, the amyloid nucleation score turned out to be 3.01 ± 0.061.
Under GVVYLGNRLISFSRSLSLKT stands 0.387 ± 0.45; under GWCVHSKKDGKYCRSYTRQF, -0.136 ± 0.23.
Take GWFMNCTLVVKVTDTEIGLY: the amyloid nucleation score result was “inactive”.
GWKDGLAASSF displayed an amyloid nucleation score of 1.01 ± 0.2.
Regarding GWRKSLNWCVYVGEGASIVV, the amyloid nucleation score was determined as 0.517 ± 0.25.
Take GWVKTLEGLLMCLVVCNTVM: the amyloid nucleation score came out at 2.98 ± 0.12.
Turning to GYCYYVPFMVGP, the amyloid nucleation score is 0.817 ± 0.8.
With GYFAYRVICNVVGDTGFSLA, the amyloid nucleation score was -0.06 ± 1.1.
Consider GYGRLIWLGACRL, for which the amyloid nucleation score was 1.18 ± 0.48.
Under GYMYCISATCRDLSKGRTGT stands -0.221 ± 0.39; under GYNGMGRCINWVRKYRWLLW, 5.355 ± 0.033; under GYNLKILESIMEGSAGLMCT, -0.779 ± 0.33.
Regarding GYRFEAPWYNGLTVYGRIFC, the amyloid nucleation score is -1.1 ± 0.55.
The result for GYRYHLWHVT reads “inactive”; that for GYSTRIGASFGLGPVGCSAR, 3.06 ± 0.087.
For GYYMRLS, the amyloid nucleation score result was “inactive”.
The substance HASTEIGSWL showed an amyloid nucleation score of 0.552 ± 0.42.
Regarding HASWIGISLS, the amyloid nucleation score is -0.395 ± 0.74.
As for HCCHRFYMDSEIACTCFTTM, the amyloid nucleation score was -0.523 ± 0.56.
Regarding HCGMAYFH, the amyloid nucleation score was -0.111 ± 0.32.
Take HCHAVDSLNVHFKEFIHRMN: the amyloid nucleation score result is “inactive”.
HCSFCVIVGFNRCDALGSHR returned an amyloid nucleation score of 7.03 ± 0.075.
For HCSFG, the amyloid nucleation score worked out at 2.32 ± 0.12.
In turn, HDGICSNSGVVSINKNGNYD registered an amyloid nucleation score of 1.27 ± 0.29.
Under HDGVNCSYRSDSIYIVENTH stands “inactive”.
Consider HDKLVTRLYWYSKCVVKGLN, for which the amyloid nucleation score is -0.375 ± 1.1.
The result for HDTESTLVTVLRAFLHRCDY reads 0.411 ± 0.56.
HDVFVTYTTLLITARLMRRP showed an amyloid nucleation score of 1.86 ± 0.27.
In turn, HEECIGSCCYGRWSCGTTLW yielded an amyloid nucleation score of 4.84 ± 0.054.
Consider HEGIDVSMPHQDRTAADNLA, for which the amyloid nucleation score was 0.409 ± 0.53.
Under HELAIISN stands 2.97 ± 0.17; under HETLQASIFVLLIHTKYHES, -1.58 ± 1; under HFCVLLLSFKNKILNYAFMH, -0.393 ± 1.1.
The result for HFFTQY reads 2.95 ± 0.1; that for HFGDIDKYRAADAGVVERNP, 4.25 ± 0.083.
As for HFLSFSMGWNSC, the amyloid nucleation score stood at 4.82 ± 0.063.
Under HFMSYAAWAREWSVEPQ stands 0.967 ± 0.66; under HFNFCLWDNENYRNGMVWCR, 0.042 ± 0.5; under HFPHGHDFVFTVCYDTHSCL, 0.729 ± 0.15.
On to HFSFTPFRTWV, for which the amyloid nucleation score was -0.527 ± 0.27.
HFYCMV yielded an amyloid nucleation score of 4.51 ± 0.11.
As to HGHLHYLMNR, the amyloid nucleation score was -0.031 ± 1.
HGLEVVQMASSLELQARKKA registered an amyloid nucleation score of 0.049 ± 0.34.
The substance HGMYKTG returned an amyloid nucleation score of 2.54 ± 0.11.
The result for HHAHGFRPIGMCSCISMDPS reads 7.87 ± 0.059.
The result for HHGQTHHLMWNWIF reads 4.27 ± 0.1; that for HHLLPWGWRPVYGSRLRCTL, 4.23 ± 0.049.
Regarding HHRIFGMIDELSKVTNIHFG, the amyloid nucleation score is -0.434 ± 0.74.
Consider HIFVVGMDRSVVSRSVEP, for which the amyloid nucleation score entry is “inactive”.
Regarding HIGILTT, the amyloid nucleation score came to 1.64 ± 0.32.
Regarding HIGIWGRQTLR, the amyloid nucleation score was determined as 3.55 ± 0.049.
As for HIGSVVVELLSVRLLWHCMH, the amyloid nucleation score was found to be 5.94 ± 0.088.
Under HIMIFWYPVLTIKVQYDVGV stands “inactive”.
Substance HKEEV registered an amyloid nucleation score of 0.163 ± 0.53.
With HKFIPAVVSCMQGNMKNYWS, the amyloid nucleation score was -0.166 ± 0.5.
The result for HKLCGYIYIRVIRSWKWYKQ reads -0.306 ± 0.63.
Regarding HKRHTLK, the amyloid nucleation score was -0.809 ± 1.1.
For the substance HLCGC, the amyloid nucleation score entry is “inactive”.
HLCSCTMWGPHNRGFYYHWC: the amyloid nucleation score entry was “inactive”.
Take HLDGWRNFDYDIS: the amyloid nucleation score is -2.3 ± 0.78.
As for HLRWARRIGVCTVFYLSRIC, the amyloid nucleation score was found to be 0.483 ± 0.57.
In the case of HLSCDWVLIDEGLACYM, the amyloid nucleation score was -0.586 ± 0.54.
The result for HLSFGFRRNRR reads 0.967 ± 0.2; that for HLTSKVTGASIKVTKVNYLD, -1.25 ± 0.64; that for HLVVSMVRTLVCHFCRFDVS, 1.28 ± 0.41.
Turning to HLYCRALILLVVLPGYTQLL, the amyloid nucleation score is -1.07 ± 0.78.
Substance HMEKWCSSTMSRLLSVQLAK registered an amyloid nucleation score of 0.771 ± 0.29.
The result for HMHQPSSPHLLLCV reads -0.47 ± 0.46.
Substance HNGVCSSRARVSLWAGRCWK registered an amyloid nucleation score of 0.742 ± 0.22.
For HNLMCYGWNFLSVSVVDNCD, the amyloid nucleation score turned out to be 6.552 ± 0.05.
Take HNLNKTGDKRFYTLFVSSPR: the amyloid nucleation score worked out at 0.012 ± 1.
In turn, HNPSIAARCGGICYDNITVW showed an amyloid nucleation score of 0.838 ± 0.51.
